Reference: patent US20190077860A1 (EISAI R AND D MANAGEMENT, published 2019)
Residue numbers refer to the chain shown, from its start.

B1: humanized antibody No. 132 (antibody, human IgG2)
heavy: QIQLVQSGSELKKPGASVKVSCKASGYTFTDYSMHWVRQAPGQGLKWMGWINTETGEPTYAQGFTGRFVFSLDTSVSTAYLQISSLKAEDTAVYYCARIPLYYYGSRYWYFDVWGQGTTVTVSSASTKGPSVFPLAPSSRSTSESTAALGCLVKDYFPEPVTVSWNSGALTSGVHTFPAVLQSSGLYSLSSVVTVPSSNFGTQTYTCNVDHKPSNTKVDKTVERKSCVECPPCPAPPAAAPSVFLFPPKPKDTLMISRTPEVTCVVVDVSHEDPEVQFNWYVDGVEVHNAKTKPREEQFNSTFRVVSVLTVVHQDWLNGKEYKCKVSNKGLPAPIEKTISKTKGQPREPQVYTLPPSREEMTKNQVSLTCLVKGFYPSDIAVEWESNGQPENNYKTTPPMLDSDGSFFLYSKLTVDKSRWQQGNVFSCSVMHEALHNHYTQKSLSLSPG
light: EIVMTQSPATLSVSPGERATLSCRASENIYRNLAWYQQKPGQSPRLLIYAATNLADGIPARFSGSGSGTEYTLTISSLQSEDFAVYYCQHFWGTPWTFGQGTKVEIKRTVAAPSVFIFPPSDEQLKSGTASVVCLLNNFYPREAKVQWKVDNALQSGNSQESVTEQDSKDSTYSLSSTLTLSKADYEKHKVYACEVTHQGLSSPVTKSFNRGEC
notes: human Ig kappa; also called L2-4/HA4
B2: humanized antibody No. 94 (antibody, human IgG1, kappa)
heavy: QVQLVQSGSELKKPGASVKVSCKASGYTFTDYSMHWVRQAPGQGLKWMGWINTETGEPTYAQGFTGRFVFSLDTSVSTAYLQISSLKAEDTAVYYCARIPLYYYGSRYWYFDVWGQGTTVTVSSASTKGPSVFPLAPSSKSTSGGTAALGCLVKDYFPEPVTVSWNSGALTSGVHTFPAVLQSSGLYSLSSVVTVPSSSLGTQTYICNVNHKPSNTKVDKRVEPKSCDKTHTCPPCPAPPAAAPSVFLFPPKPKDTLMISRTPEVTCVVVDVSHEDPEVQFNWYVDGVEVHNAKTKPREEQFNSTFRVVSVLTVVHQDWLNGKEYKCKVSNKGLPAPIEKTISKTKGQPREPQVYTLPPSREEMTKNQVSLTCLVKGFYPSDIAVEWESNGQPENNYKTTPPMLDSDGSFFLYSKLTVDKSRWQQGNVFSCSVMHEALHNHYTQKSLSLSPG
light: B1 light
notes: human Ig kappa; also called L2-4/HA2
B3: humanized antibody No. 133 (antibody, human IgG2)
heavy: B1 heavy with I2V, K46E
light: B1 light
notes: human Ig kappa; also called L2-4/HA1
B4: humanized antibody No. 93 (antibody, human IgG1, kappa)
heavy: B2 heavy with K46E
light: B1 light
notes: as for B3
B5: humanized antibody No. 71 (antibody, human IgG1, kappa)
heavy: B2 heavy with V2I
light: B1 light
notes: as for B1
B6: humanized antibody No. 135 (antibody, human IgG2)
heavy: B1 heavy with I2V, K46E, Q62D, G63D, T65K
light: B1 light
notes: human Ig kappa; also called L2-4/HK1
B7: humanized antibody No. 95 (antibody, human IgG1, kappa)
heavy: B2 heavy with K46E, Q62D, G63D, T65K
light: B1 light
notes: as for B6
B8: humanized antibody No. 137 (antibody, human IgG2)
heavy: B1 heavy with Q62D, G63D, T65K
light: B1 light
notes: human Ig kappa; also called L2-4/HK4
B9: humanized antibody No. 73 (antibody, human IgG1, kappa)
heavy: B2 heavy with V2I, Q62D, G63D, T65K
light: B1 light
notes: as for B8
B10: humanized antibody No. 136 (antibody, human IgG2)
heavy: B1 heavy with I2V, Q62D, G63D, T65K
light: B1 light
notes: human Ig kappa; also called L2-4/HK2
B11: humanized antibody No. 96 (antibody, human IgG1, kappa)
heavy: B2 heavy with Q62D, G63D, T65K
light: B1 light
notes: as for B10

Legend:
Test in all cases: ELISA
SEAP-His = SEAP-His (UniProt P05187 23-511)
[1] = molecular target: T1, human EphA3 extracellular region-SEAP-His protein (human, UniProt P29320 21-541)
T1 construct: extracellular domain; also called hEphA3-SEAP-His
T1 sequence (looked up): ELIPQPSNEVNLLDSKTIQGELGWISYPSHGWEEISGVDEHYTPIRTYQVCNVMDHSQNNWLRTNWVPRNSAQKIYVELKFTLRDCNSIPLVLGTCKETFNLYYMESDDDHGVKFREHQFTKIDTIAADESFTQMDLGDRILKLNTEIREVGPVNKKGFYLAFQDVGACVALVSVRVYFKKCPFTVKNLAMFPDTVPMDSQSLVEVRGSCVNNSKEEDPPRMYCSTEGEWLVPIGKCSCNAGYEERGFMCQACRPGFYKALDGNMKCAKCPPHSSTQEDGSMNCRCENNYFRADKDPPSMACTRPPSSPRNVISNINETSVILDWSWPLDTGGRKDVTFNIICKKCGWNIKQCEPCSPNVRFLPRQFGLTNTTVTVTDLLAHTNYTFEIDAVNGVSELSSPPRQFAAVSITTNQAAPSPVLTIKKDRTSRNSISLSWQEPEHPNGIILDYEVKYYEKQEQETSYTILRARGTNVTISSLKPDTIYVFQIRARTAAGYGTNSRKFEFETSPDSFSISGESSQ

[2] = molecular target: T2, human EphB4 extracellular region-SEAP-His protein (human, UniProt P54760 16-539)
T2 construct: extracellular domain; also called hEphB4-SEAP-His
T2 sequence (looked up): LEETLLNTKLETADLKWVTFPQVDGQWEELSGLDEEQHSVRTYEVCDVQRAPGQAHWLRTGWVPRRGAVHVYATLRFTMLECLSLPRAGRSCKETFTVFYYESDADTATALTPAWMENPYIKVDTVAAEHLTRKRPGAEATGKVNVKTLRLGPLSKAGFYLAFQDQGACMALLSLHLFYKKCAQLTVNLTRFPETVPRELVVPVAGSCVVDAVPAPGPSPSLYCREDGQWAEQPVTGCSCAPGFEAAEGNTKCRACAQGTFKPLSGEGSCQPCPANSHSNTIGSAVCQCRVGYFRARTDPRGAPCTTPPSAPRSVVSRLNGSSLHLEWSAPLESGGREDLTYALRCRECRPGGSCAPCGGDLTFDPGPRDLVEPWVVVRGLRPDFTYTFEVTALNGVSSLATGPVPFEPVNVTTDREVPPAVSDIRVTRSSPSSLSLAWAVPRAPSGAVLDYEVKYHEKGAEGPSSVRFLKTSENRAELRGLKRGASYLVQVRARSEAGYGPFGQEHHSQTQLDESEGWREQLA

[3] = molecular target: T3, human EphA10 extracellular region-SEAP-His protein (human, UniProt Q5JZY3 34-565)
T3 construct: extracellular domain; also called hEphA10-SEAP-His
T3 sequence (looked up): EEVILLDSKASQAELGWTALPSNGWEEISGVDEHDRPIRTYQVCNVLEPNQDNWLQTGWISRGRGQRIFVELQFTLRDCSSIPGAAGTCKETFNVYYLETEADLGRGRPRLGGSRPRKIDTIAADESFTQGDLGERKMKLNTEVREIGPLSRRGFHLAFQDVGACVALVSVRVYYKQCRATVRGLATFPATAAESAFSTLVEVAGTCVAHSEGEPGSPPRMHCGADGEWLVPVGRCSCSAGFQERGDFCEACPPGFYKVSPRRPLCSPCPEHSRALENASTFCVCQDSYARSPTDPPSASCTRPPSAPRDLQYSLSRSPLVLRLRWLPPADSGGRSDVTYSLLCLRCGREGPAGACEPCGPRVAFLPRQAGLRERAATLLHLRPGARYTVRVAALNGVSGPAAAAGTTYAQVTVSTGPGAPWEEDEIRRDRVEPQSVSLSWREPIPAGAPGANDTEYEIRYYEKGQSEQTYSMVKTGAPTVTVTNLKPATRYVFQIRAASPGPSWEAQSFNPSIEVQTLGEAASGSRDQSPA

[4] = molecular target: T4, human EphB3 extracellular region-SEAP-His protein (human, UniProt P54753 34-559)
T4 construct: extracellular domain; also called hEphB3-SEAP-His
T4 sequence (looked up): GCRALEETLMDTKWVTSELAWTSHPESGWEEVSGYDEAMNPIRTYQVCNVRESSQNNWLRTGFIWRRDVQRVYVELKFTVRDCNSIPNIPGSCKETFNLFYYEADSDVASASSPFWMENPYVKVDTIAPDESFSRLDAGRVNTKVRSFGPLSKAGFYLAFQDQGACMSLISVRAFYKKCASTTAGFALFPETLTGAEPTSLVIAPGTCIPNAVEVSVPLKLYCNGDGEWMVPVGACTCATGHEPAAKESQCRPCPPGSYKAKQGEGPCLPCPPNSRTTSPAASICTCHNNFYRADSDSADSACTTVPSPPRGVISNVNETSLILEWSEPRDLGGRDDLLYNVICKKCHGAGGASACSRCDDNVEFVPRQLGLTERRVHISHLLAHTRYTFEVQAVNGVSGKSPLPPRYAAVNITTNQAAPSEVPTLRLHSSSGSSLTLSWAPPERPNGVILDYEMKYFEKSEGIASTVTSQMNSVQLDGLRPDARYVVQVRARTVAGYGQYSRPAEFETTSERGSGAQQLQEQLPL

Chain of SEAP-His (P05187 23-511): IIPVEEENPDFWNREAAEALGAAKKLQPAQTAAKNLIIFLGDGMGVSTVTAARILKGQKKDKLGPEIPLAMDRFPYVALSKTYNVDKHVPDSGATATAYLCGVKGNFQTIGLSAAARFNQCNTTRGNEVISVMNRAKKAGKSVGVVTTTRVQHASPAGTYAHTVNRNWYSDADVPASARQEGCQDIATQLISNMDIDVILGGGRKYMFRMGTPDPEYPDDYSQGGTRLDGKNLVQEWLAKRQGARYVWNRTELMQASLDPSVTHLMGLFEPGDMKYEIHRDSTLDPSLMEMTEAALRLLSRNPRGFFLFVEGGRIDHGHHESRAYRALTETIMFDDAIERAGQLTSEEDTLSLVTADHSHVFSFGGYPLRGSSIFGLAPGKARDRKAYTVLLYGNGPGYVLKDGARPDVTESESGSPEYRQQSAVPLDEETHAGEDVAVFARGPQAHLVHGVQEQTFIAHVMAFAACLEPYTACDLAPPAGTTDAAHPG

Binder	A450 as % of hEphA4-SEAP-His (SEAP-His) [%]	A450 as % of hEphA4-SEAP-His [1] [%]	A450 as % of hEphA4-SEAP-His [2] [%]	A450 as % of hEphA4-SEAP-His [3] [%]	A450 as % of hEphA4-SEAP-His [4] [%]
B1	4.9	4.8	4.8	4.7	4.7
B2	6.7	6.8	6.5	6.4	6.7
B3	4.7	5	4.9	4.7	4.7
B4	5	5.1	5	4.9	5.1
B5	5.6	5.6	5.5	5.3	5.5
B6	5.3	5	5.1	5.1	5
B7	4.4	4.8	4.6	4.5	4.6
B8	5.9	5.6	5.7	5.6	5.7
B9	5.8	5.8	5.7	5.6	5.8
B10	5.2	5.2	5.2	5.2	5.5
B11	5.5	5.5	5.5	5.3	5.6
